Measurements: the nanobody polyreactivity screen of Harvey et al. (2022)

experiment: yeast display, Sf9 membrane polyspecificity reagent, FACS + sequencing; frameworks hold sequencing errors
Outline: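 Using colony PCR, genes from sorted yeast display clones were amplified, then sequenced on MiSeq at 2 × 250 and filtered by CDR length. The clones had been stained with 10% biotinylated, detergent-solubilized Sf9 membrane reagent for 1 hour at 4 °C and sorted by FACS into low and high (top ~1%) gates on anti-HA and streptavidin fluorescence. Polyreactivity labels come from the gate of origin.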

| Sequence | polyreactivity (PSR sort gate) |
| --- | --- |
| QVQLVESGGGLVQAGGSLRLSCAASGSIFTINAMGWYRQAPGIERALVAAIRSGGGTNYADSVKGRFTISRDNAKNTVYFQMNSLKPEDTAVYYCAADLWAGKYGEYDYWGQGTQVTVSS | high polyreactivity |
| QVQLVESGGGLVQAGGSLRLSCAASGSILYLNAMGWYRQAPGKERELVATISNGGSTNYADSVKGRFTISRDNAKNTVYLQMNSLKPEDTAVYYCAAASGGTVVGEGDYWGQGTQVTVSS | low polyreactivity |
| QVQLVESGGGLVQAGGSLRLSCAASGSIFRAYAMGWYRQAHGKERELVAAITGNGARTYYADSVKGRFTISRDNAKNTVYLQMNSLKPEDTAVYYCAKRGNRQHRWWYDYWGQGTQVTVSS | low polyreactivity |
| QVQLVESGGGLVQAGGSLRLSCAASGSTFIQYAMGWSRQAPGNERELVASIRWIGGSTYYADSVKGRFTISRDNAKNTVYLQMNSLKAEDTAVYYCAAGYEYVENGVDWYEYDYWGQGTQVTVSS | low polyreactivity |
| QVQLVESGGGLVQAGGSLRLSCAASGFIFNRYAMGWYRQAPGKERELVADITGGSTYYADSVKGRFTISRDNAKNTVYLQMNSQKPEDTEVYYCAADRYGFYLESDYWGQGTQVTVSS | low polyreactivity |
| QFKLVESGGGLVQAGGSLRLSCAASGSIVERKTMGWYRQAPGKEMEFVAGITQSGGRTYYADSVKGRFTISRDNAKNTVYLQMNSLKPEDTAVYYCATKTPRAWSYGYWGQGTQVTVSS | high polyreactivity |
| QVQLVESGGGLVQAGGSLRLSCAASGFIFAPNAMGWYRQAPGKERELVAAISHSGASTFYADSVKGRFTISRDNAKNTVYLQMNSLKPEDTAVYYCAAPPYYSYDYWGQGTQVTVSS | low polyreactivity |
| QVQLVESGGGLVQAGGSLRLSCAASGSTFRKYVMGWYRQAPGKERELDAGITSRGGSTYYADSVKGRFTISRDNAKNTVYLQMNSLKPEDSAVYYCAKRAYGTALYRGYGYWGQGTQVPVSS | low polyreactivity |
| QVQLVESWGGLVHAGGSLRLSCAASGSTFAGYAMGWYRKATGTERELVATITYSGGSTYYADSVKGRFTISRDNAKNTVYLQMNSLKTEDTAVYYCAKKASYWWGYEYWGQGTQVTVSS | low polyreactivity |
| QGQLVESGRGLVQAGGSLRLSSAASGSTFFANAMGWYRQAPGKERELVAAIDKRGGRTYYADSVKGRFTISRDNAKNTVYLQMNSLKPEDTAVYYCNAVANYRLKYDYWGQGTQVTVSS | high polyreactivity |
| QVQLEESGGGLVQAGGSLRFSCAASGRIYRYAMGWYRQAPGKERELVASITYSGGSTYYADSVKGRFTISRDNAKNTVYLQMNSLKPEDTAVYYCAASTRHVHYGYWGQGTQVTVSS | high polyreactivity |
| QDHLVESGGGLVQAGGSLRLSCAASGRIFDPYAMGWYRQAPGKERELVARITWRGGRTYYADSVKGRFTISLDNAKNTVYLQMNSLKPEDTAVYYCNAVFYYRYYGAYDYWGQGTQVTVSS | high polyreactivity |
| QVQLVESGAGLVQAGGSLRISCAASGRIFHYALGWYRQAPGKERELVAGISKRGGSTYYADSVKGRFTISRDNAKNTVYLQMNSLKPEDTAVYYCAAGRAYDGTKHDYWGQGTQVTVSS | high polyreactivity |
| QVQLVESGGGLVQAGGSLRLSCAASGYIFQYYPMGWYRQAPGKERELVAAITSGTRTYYADSVKGRFTISRDNAKNTVYLQMNSLKPDDTAGYYCAASPDYSRYWVYAPTRRLGYWGQGTQVTVSS | high polyreactivity |
| QVQLVESGGGLVQAGGSLRLSSASSGSTFWIYAMGWYRQAPGKEREMVASIRRACNTYADSVKGRFTISRDNAKNTVYLQMNSLKPEDTAVYYCNARLYLPYGYRRSNGYESDYWGQGTQVTVSS | high polyreactivity |
| QVHLVESGGGLVQAGGSLRLSCAASGITFRYYAMGWYRQAPGKERELVAVISTSGGSTYYADSVKGRFTISRDNAKNTVYLQMNSLKPEDTAVYYCAVVWPYSERYYYWGQGTQVTVSS | high polyreactivity |
| QVQIVESGGGLVQAGGSLRLSCAASGRTFLVNSMGWYRQAPGKEMELVAVITNGGSTYADSVKGRFTISRDNAKNTVYLQMNSLKPEDTAVYNCAARGNRWRSPSGSPYYYWGQGTQVTVSS | high polyreactivity |
